Laboratory results published in article PMC8971729 (Molecular Therapy Oncolytics, 2022).

Molecular target: T1, human CXADR Fc chimera protein (CAR) (human, UniProt P78310)
T1 construct: also called coxsackievirus and adenovirus receptor; source: bought: R&D Systems
T1 sequence: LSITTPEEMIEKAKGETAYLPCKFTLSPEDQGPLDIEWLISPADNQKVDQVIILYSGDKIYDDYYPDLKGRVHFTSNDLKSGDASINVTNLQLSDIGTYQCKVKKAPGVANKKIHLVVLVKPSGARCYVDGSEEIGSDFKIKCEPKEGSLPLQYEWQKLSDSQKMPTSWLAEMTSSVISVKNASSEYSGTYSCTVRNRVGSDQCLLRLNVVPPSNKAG
Test: SPR; BIAcore 3000; DSG2-Fc, CAR-Fc and CD46-His (approximately 500 RU) coupled to a CM5 chip; knob protein injected (178 uM, 5x 1:3 dilutions; single-cycle kinetics from 200 uM); 30 uL/min, PBS, 25 °C; equilibrium KD assuming 1:1 Langmuir binding
Conditions: both partners purified

B1: HAdV-C5 fiber knob protein (domain or fragment)
chain: KNNDKLTLWTTPAPSPNCRLNAEKDAKLTLVLTKCGSQILATVSVLAVKGSLAPISGTVQSAHLIIRFDENGVLLNNSFLDPEYWNFRNGDLTEGTAYTNAVGFMPNLSAYPKSHGKTAKSNIVSQVYLNGDKTKPVTLTITLNGTQETGDTTPSAYSMSFSWDWSGHNYINEIFATSSYTFSYIAQE
notes: source: supplemental methods
For B1, the Kd was 0.76 nM.
